In patent US5702897:

Biological target: LexA/Bax fusion protein (murine) (UniProt P0A7C2)

Row | colony formation of yeast cotransformed with LexA/Bax, galactose medium (neutralization of Bax activity) | Substance
1 | 19 | B42/Bcl-2(1-81) hybrid
2 | 280 | B42/Bcl-2(1-218) hybrid
3 | 16 | B42/Bcl-2(83-218) hybrid
4 | 300 | B42/Bcl-X-L hybrid
5 | 10 | B42/Bcl-X-S hybrid
6 | 8 | B42/Lamin
7 | 290 | B42/Mcl-1 hybrid
